# Assay results published in IntAct's records for PubMed 17567753.
# B1: Lysine-specific demethylase 4A (Homo sapiens), O75164 (parent)
# chain: MASESETLNPSARIMTFYPTMEEFRNFSRYIAYIESQGAHRAGLAKVVPPKEWKPRASYDDIDDLVIPAPIQQLVTGQSGLFTQYNIQKKAMTVREFRKIANSDKYCTPRYSEFEELERKYWKNLTFNPPIYGADVNGTLYEKHVDEWNIGRLRTILDLVEKESGITIEGVNTPYLYFGMWKTSFAWHTEDMDLYSINYLHFGEPKSWYSVPPEHGKRLERLAKGFFPGSAQSCEAFLRHKMTLISPLMLKKYGIPFDKVTQEAGEFMITFPYGYHAGFNHGFNCAESTNFATRRWIEYGKQAVLCSCRKDMVKISMDVFVRKFQPERYKLWKAGKDNTVIDHTLPTPEAAEFLKESELPPRAGNEEECPEEDMEGVEDGEEGDLKTSLAKHRIGTKRHRVCLEIPQEVSQSELFPKEDLSSEQYEMTECPAALAPVRPTHSSVRQVEDGLTFPDYSDSTEVKFEELKNVKLEEEDEEEEQAAAALDLSVNPASVGGRLVFSGSKKKSSSSLGSGSSRDSISSDSETSEPLSCRAQGQTGVLTVHSYAKGDGRVTVGEPCTRKKGSAARSFSERELAEVADEYMFSLEENKKSKGRRQPLSKLPRHHPLVLQECVSDDETSEQLTPEEEAEETEAWAKPLSQLWQNRPPNFEAEKEFNETMAQQAPHCAVCMIFQTYHQVEFGGFNQNCGNASDLAPQKQRTKPLIPEMCFTSTGCSTDINLSTPYLEEDGTSILVSCKKCSVRVHASCYGVPPAKASEDWMCSRCSANALEEDCCLCSLRGGALQRANDDRWVHVSCAVAILEARFVNIAERSPVDVSKIPLPRFKLKCIFCKKRRKRTAGCCVQCSHGRCPTAFHVSCAQAAGVMMQPDDWPFVVFITCFRHKIPNLERAKGALQSITAGQKVISKHKNGRFYQCEVVRLTTETFYEVNFDDGSFSDNLYPEDIVSQDCLQFGPPAEGEVVQVRWTDGQVYGAKFVASHPIQMYQVEFEDGSQLVVKRDDVYTLDEELPKRVKSRLSVASDMRFNEIFTEKEVKQEKKRQRVINSRYREDYIEPALYRAIME
# Variants of: B1
# Settings: with h31t_human H3-4, Q16695
row,effect of a mutation on the interaction,Variant
1,decreasing interaction,Y175F
2,decreasing interaction,N86A
3,disrupting interaction,Y177L
4,decreasing interaction,Y177F
5,decreasing interaction,D135A
6,disrupting interaction,N290I
7,disrupting interaction,N290A
8,disrupting interaction,N290V
9,disrupting interaction,N290D
10,disrupting interaction,K241A
11,disrupting interaction,K241L
12,decreasing interaction,Q88A

# Variants of: B1
# Settings: with h31t_human H3-4, Q16695
# Remark: another data set of the same source
row,effect of a mutation on the interaction,Variant
1,disrupting interaction strength,G133A;G138A
2,disrupting interaction strength,G165A;G170A
